One series concerns the target T1, plasminogen, P00747.
T1 chain: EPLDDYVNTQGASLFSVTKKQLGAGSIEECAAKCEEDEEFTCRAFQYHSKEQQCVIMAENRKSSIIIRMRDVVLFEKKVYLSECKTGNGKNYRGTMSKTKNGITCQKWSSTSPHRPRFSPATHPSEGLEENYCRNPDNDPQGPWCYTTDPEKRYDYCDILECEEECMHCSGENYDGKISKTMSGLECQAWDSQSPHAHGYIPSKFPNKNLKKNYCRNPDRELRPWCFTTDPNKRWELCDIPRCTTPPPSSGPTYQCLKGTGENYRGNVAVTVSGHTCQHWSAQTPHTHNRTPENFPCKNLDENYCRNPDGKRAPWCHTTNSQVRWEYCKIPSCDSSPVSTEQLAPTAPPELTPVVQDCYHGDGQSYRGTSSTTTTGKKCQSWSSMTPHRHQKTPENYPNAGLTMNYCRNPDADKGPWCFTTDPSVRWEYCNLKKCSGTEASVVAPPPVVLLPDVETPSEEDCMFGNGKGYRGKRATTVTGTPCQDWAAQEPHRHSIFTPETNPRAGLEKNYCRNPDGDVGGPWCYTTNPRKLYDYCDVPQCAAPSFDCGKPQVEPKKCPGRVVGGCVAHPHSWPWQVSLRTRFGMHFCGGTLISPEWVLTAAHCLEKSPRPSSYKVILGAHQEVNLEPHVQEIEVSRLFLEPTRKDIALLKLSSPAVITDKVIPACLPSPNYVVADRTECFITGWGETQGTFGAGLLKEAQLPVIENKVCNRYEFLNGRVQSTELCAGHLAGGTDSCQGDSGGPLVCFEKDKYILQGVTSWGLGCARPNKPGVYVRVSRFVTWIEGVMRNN

Series [1] has as its target T2, Soluble human recombinant p97 (melanotransferrin).
T2 chain: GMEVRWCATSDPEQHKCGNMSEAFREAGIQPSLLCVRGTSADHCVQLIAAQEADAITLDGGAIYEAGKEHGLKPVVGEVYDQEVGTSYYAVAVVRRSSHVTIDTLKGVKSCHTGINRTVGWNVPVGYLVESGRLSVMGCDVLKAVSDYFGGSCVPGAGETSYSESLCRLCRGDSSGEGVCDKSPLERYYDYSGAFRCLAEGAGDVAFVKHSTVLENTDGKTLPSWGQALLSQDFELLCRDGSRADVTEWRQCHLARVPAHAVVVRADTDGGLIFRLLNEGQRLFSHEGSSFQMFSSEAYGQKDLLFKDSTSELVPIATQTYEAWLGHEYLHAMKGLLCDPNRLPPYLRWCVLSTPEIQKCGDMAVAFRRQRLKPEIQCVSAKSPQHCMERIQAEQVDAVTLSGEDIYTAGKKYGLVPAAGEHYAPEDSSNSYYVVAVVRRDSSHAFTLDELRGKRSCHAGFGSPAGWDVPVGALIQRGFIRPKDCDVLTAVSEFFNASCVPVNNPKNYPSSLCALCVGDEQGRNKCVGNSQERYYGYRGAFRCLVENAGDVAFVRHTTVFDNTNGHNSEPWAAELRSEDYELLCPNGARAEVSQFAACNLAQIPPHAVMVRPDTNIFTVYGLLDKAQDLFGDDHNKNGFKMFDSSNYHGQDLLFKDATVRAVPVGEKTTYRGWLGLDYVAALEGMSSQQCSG

B1: tissue plasminogen activator (tPA) (protein)
chain: SYQVICRDEKTQMIYQQHQSWLRPVLRSNRVEYCWCNSGRAQCHSVPVKSCSEPRCFNGGTCQQALYFSDFVCQCPEGFAGKCCEIDTRATCYEDQGISYRGTWSTAESGAECTNWNSSALAQKPYSGRRPDAIRLGLGNHNYCRNPDRDSKPWCYVFKAGKYSSEFCSTPACSEGNSDCYFGNGSAYRGTHSLTESGASCLPWNSMILIGKVYTAQNPSAQALGLGKHNYCRNPDGDAKPWCHVLKNRRLTWEYCDVPSCSTCGLRQYSQPQFRIKGGLFADIASHPWQAAIFAKHRRSPGERFLCGGILISSCWILSAAHCFQERFPPHHLTVILGRTYRVVPGEEEQKFEVEKYIVHKEFDDDTYDNDIALLQLKSDSSRCAQESSVVRTVCLPPADLQLPDWTECELSGYGKHEALSPFYSERLKEAHVRLYPSSRCTSQHLLNRTVTDNMLCAGDTRSGGPQANLHDACQGDSGGPLVCLNDGRMTLVGIISWGLGCGQKDVPGVYTKVTNYLDWIRDNMRP
For the protein B1, in the series with plasminogen, P00747, the “apparent Km of tPA for plasminogen, with 50 nM p97” value is “decreases the apparent Km of tPA for plasminogen by 5-fold from 280 to 52 nM” and the “apparent Km of tPA for plasminogen, without p97” value is on record as “decreases the apparent Km of tPA for plasminogen by 5-fold from 280 to 52 nM”. Moreover, the “VLK-pNA hydrolysis by 75 nM tPA with 70 nM p97, without plasminogen” value in series [1] is “Addition of p97 to tPA elicits no observable effect”.

For the origin of these results see US20070053894.
